From the RNAGym collection of RNA variant scans (doi:10.7554/elife.80360) come the findings set out here.

Sequences and labels used below:
B1: HDV Ribozyme (parent)
chain: GGCCGGCAUGGUCCCAGCCUCCUCGCUGGCGCCGGCUGGGCAACAUUCCGAGGGGACCGUCCCCUCGGUAAUGGCGAAUGGGACCCA

The variants in this data set derive from B1. In words: self-cleavage, relative activity (ratio to wild type); higher = more cleavage; co-transcriptional.
Take GGCCGGCAUGGUCCCAGCCUCCUCGCUGGCGCCGGCUGUGCAACAUUCCGAGGGGACCGUCCCCUCGGUAAUGGCGAAUUGGACCCA [G39U G80U]: the self-cleavage came out at 0.119. As to GGCCGGCAUGGUCCCAGCCUCCUCGCUGGCGCCGGCUGGGCAACAUUGCGAGGGGACCGGCCCCUCGGUAAUGGCGAAUGGGACCCA [C48G U60G], the self-cleavage was found to be 1.01. Regarding GGCCGGCAUGGUCCCAGCCUCCUCGCUGGCGCCGGCUGGGCACCAUUCCGAGGGGACCGUCCCCUCGGUAAUGGCGACUGGGACCCA [A43C A78C], the self-cleavage is 0.0723. As to GGCCGGCAUGGUCCCAGCCUCCUCGCUGGCGCCGGCUGGGCAACAUUCCGAGGGGACCGUCCCCUCGGUUAUGGCGAGUGGGACCCA [A70U A78G], the self-cleavage amounted to 0.7.

For the variant GGCCGGCAUGGUACCAGCCUCCUCGCUGGCGCCGGCUGGGCAACAUUCCGAGGGGACCGUCCCCUGGGUAAUGGCGAAUGGGACCCA [C13A C66G], the self-cleavage came out at 0.378. With GGCCGGCAUGGUCCCAGCCUCCUCGCUGGCGCCGGCUGGGCAACAUUCCGAGGCGACCGUCCCCUCGGUAAUGGCGAAUGGGAGCCA [G54C C84G] the figure was 0.917; with GGCCGGCAGGGUCCCAGCGUCCUCGCUGGCGCCGGCUGGGCAACAUUCCGAGGGGACCGUCCCCUCGGUAAUGGCGAAUGGGACCCA [U9G C19G], 0. With GGCCGGCAUGGUCCCAGCCUCCUCGCUGGCGCCGGCUGGGCAACAUUCCGAGGGGACCGUCCCAUCGGUAAUGGCGAAUGCGACCCA [C64A G81C], the self-cleavage came out at 0.203.

As for GGCCGGCAUGUUCCCAGCCUCCUCGCUGGCGCCGGCUGGGCAACAUUCCGAGGGGACCGUCGCCUCGGUAAUGGCGAAUGGGACCCA [G11U C62G], the self-cleavage is 0.151. Regarding GGCCGGCAUGGUCCCAGCAUCCUCGCUGGCACCGGCUGGGCAACAUUCCGAGGGGACCGUCCCCUCGGUAAUGGCGAAUGGGACCCA [C19A G31A], the self-cleavage was 0.117. The value for GGCCGGCAUGGUCCGAGCCUCCUCGCUGGCGACGGCUGGGCAACAUUCCGAGGGGACCGUCCCCUCGGUAAUGGCGAAUGGGACCCA [C15G C32A] was 0.158; that for GGACGGCAUGGUCCCAGCCUCCUCGCCGGCGCCGGCUGGGCAACAUUCCGAGGGGACCGUCCCCUCGGUAAUGGCGAAUGGGACCCA [C3A U27C] was 0.217. With GGCCGGCAUGGUCCCAGCCUCCUCGCUAGCGCCGGCUGGGCAACAUUCCGAGGGGACCGUCCCCUCGGUAUUGGCGAAUGGGACCCA [G28A A71U] the figure was 0.0292; with GGCCGGCAUGGUCCCAGCCUCCUCGCUGGCGCCGGCUGGGUAACAUUCCGAGGGGUCCGUCCCCUCGGUAAUGGCGAAUGGGACCCA [C41U A56U], 1.09. With GGCCGGCAUGGUCCCAGCGUCCUCGCUGGCGCCGGCUGGGCAACAUUCCGAGGGGACCGUCCCCCCGGUAAUGGCGAAUGGGACCCA [C19G U65C] the figure was 0; with GGCCGGCAUGGUCCCAGCCUCCUCGCUGGCGCCGGCUGGGCAACAUUCCGAGGGGACCGUCCGCUAGGUAAUGGCGAAUGGGACCCA [C63G C66A], 0.289; with GGCCGGCAUGGUCCCAGCCUCCUCGCUUGCGCCGGCUGGGCAACAUUCCGAGGGGACCGUCCCCUCGGUAAUGGCGAAUGGGACUCA [G28U C85U], 0.0639. On to GGCCGGCAUGGUCCCAGCCUCCUCGCUGGCGCCGACUGGGCAACAUUCCGAGGGGACCGUCCCCUCGUUAAUGGCGAAUGGGACCCA [G35A G68U], for which the self-cleavage is 0.584. The value for GGCCGGCAUGGUCCCAGCCUCCUCGCUGGCGCCGGCUGGGCAACAUUCCGAGGGGACUGUCCCCUCGGUAAUGGCCAAUGGGACCCA [C58U G76C] was 0.935; that for GGCCGUCAUGGUCCCAGCCUCCUCGCUGGCGCCGGCUGGGCAACAUUCCGAGGGGACCGUCCCCUCGGUAAUGGCGAAUGGGACCCU [G6U A87U] was 0.591.

With GGCCGGCAUGGUCCCAGCCUCCUCGCUGGCGCCGGCUGGGCAACAUUCCGAGGGGACCGUCCCCCCGGUAAUGGCGAAUGGGACCAA [U65C C86A], the self-cleavage is 0.673. With GGCCGGCAUGGUCCCAGCCUCCUCGCUGGCGCCGGCUGGGCAACAUUCCAAGGGGACCGUCCCGUCGGUAAUGGCGAAUGGGACCCA [G50A C64G] the figure was 0.404.

Regarding GGCCGGCAUGGUCCCAGCCUCCUCACUGGCGCCGGCUGGGCAACAUUCCGAGGGGACCGUCCCCUCGGUAAUGGUGAAUGGGACCCA [G25A C75U], the self-cleavage amounted to 0.0923. With GGCCGGCAUGGUCCAAGCCUCUUCGCUGGCGCCGGCUGGGCAACAUUCCGAGGGGACCGUCCCCUCGGUAAUGGCGAAUGGGACCCA [C15A C22U] the figure was 0.231; with GGCCGGCAUGGUCCCAGCCUCGUCGCUGGCGCCGGCUGGGCAACAUUCCGAGGGGAUCGUCCCCUCGGUAAUGGCGAAUGGGACCCA [C22G C57U], 0.089; with GGCCGGCAUGGUCCCAGCAUCCUCGCUGGCGCCGGCUGGGCAACAUUCCGAGGGGACCGUCCGCUCGGUAAUGGCGAAUGGGACCCA [C19A C63G], 0.256. With GGCCGGCAUGGUCCAAGCCUCCUCGCUGGCGCCGGCUGGGCAACAUUCCGAGGGGACCGUCCCCUCGGUAAUGGGGAAUGGGACCCA [C15A C75G] the figure was 0.142. As for GGCCGCCAUGGUCCCAGCCUCCUCGCUGGCGCCGGCUGGGAAACAUUCCGAGGGGACCGUCCCCUCGGUAAUGGCGAAUGGGACCCA [G6C C41A], the self-cleavage was determined as 0. The value for GGCCGGCAUGGUCCCAGCCUCCUCGGUGGCGCCGGCUGGGCAACACUCCGAGGGGACCGUCCCCUCGGUAAUGGCGAAUGGGACCCA [C26G U46C] was 1.15; that for GGCCGGCAUGGUCCCAGCCUCCUCGCUGGCGGCGGCUGGGCAACAUUCCGAGGGGACCGUGCCCUCGGUAAUGGCGAAUGGGACCCA [C32G C61G] was 0.0604. With GGCCGGCAUGGUCCCAGCCUCCUCGCUGGCGCCGGCUGGGCAACAUUCGGAGGGGACCGUCCCCUCGUUAAUGGCGAAUGGGACCCA [C49G G68U] the figure was 0.808; with GGCCGGCAUGGUCCCAGCCUCCUCGCUGGCGCCGGCUGGGCAACAUUCCGAGGGGAGCGUCCCCUCGGAAAUGGCGAAUGGGACCCA [C57G U69A], 0.767.
